This note sets out measurements from publication PMC2275093.

Data set [1] addresses T1, Cren7 (recombinant) (Sulfolobus solfataricus P2, UniProt Q97ZE3 1-60).
T1 sequence: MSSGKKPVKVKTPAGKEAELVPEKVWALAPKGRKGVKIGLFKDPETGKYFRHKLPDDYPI
The data set is described as follows: EMSA. On the technique in general: In EMSA bound probe runs differently from free probe, usually more slowly.

The target of data set [2] is T1, Cren7 (recombinant). The data set is described as follows: NMR 1H-15N HSQC titration.

B1: poly(GACT)15 60 nt ssDNA (ssDNA)
DNA: GACTGACTGACTGACTGACTGACTGACTGACTGACTGACTGACTGACTGACTGACTGACT
Consider B1, for which, in the data set with Cren7 (recombinant) [1], the Kd was around 2500 nM.

B2: 10-bp duplex (dsDNA)
DNA 1: GCGAATTCGC
DNA 2: GCGAATTCGC
As for B2, in the data set with Cren7 (recombinant) [2], the binding result is “binds”.

What is called Kd is the equilibrium constant for the complex coming apart.
